Results from patent publication US20180230200A1 (CITY OF HOPE, published 2018).

Legend:
[1] = target: gH/gL/UL128/UL130/UL131A pentamer complex (PC) of HCMV strain TB40/E virus (human cytomegalovirus strain TB40/E); assay: cell-based or functional assay
[2] = target: gH/gL/UL128/UL130/UL131A pentamer complex (PC) of HCMV strain TR virus (human cytomegalovirus strain TR); assay: cell-based or functional assay
[3] = target: T1, UL128 expressed from MVA in BHK-21 cells (human cytomegalovirus, UniProt P16837 28-171); assay: intracellular FC, MVA-infected BHK-21
T1 construct: whole, on cells
T1 sequence: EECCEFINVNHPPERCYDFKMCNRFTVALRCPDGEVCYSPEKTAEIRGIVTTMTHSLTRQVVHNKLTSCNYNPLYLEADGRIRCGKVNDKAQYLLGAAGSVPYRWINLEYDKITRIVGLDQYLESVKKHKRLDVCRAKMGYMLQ

[4] = target: T2, UL130 expressed from MVA in BHK-21 cells (human cytomegalovirus, UniProt P16772 1-214); assay: intracellular FC, MVA-infected BHK-21
T2 construct: whole, on cells

[5] = target: T3, UL131A expressed from MVA in BHK-21 cells (human cytomegalovirus, UniProt F5HET4 19-129); assay: intracellular FC, MVA-infected BHK-21
T3 construct: whole, on cells

[6] = target: T4, UL128/UL130 co-expressed from MVA in BHK-21 cells (human cytomegalovirus, UniProt P16837 28-171; P16772 1-214); assay: intracellular FC, MVA-infected BHK-21
T4 construct: whole, on cells

[7] = target: T5, UL128/UL131A co-expressed from MVA in BHK-21 cells (human cytomegalovirus, UniProt P16837 28-171; F5HET4 19-129); assay: intracellular FC, MVA-infected BHK-21
T5 construct: whole, on cells

[8] = target: T6, UL130/UL131A co-expressed from MVA in BHK-21 cells (human cytomegalovirus, UniProt P16772 1-214; F5HET4 19-129); assay: intracellular FC, MVA-infected BHK-21
T6 construct: whole, on cells

[9] = target: T7, gH expressed from MVA in BHK-21 cells (human cytomegalovirus, UniProt P12824 24-743); assay: intracellular FC, MVA-infected BHK-21
T7 construct: whole, on cells

[10] = target: T8, gH/gL co-expressed from MVA in BHK-21 cells (human cytomegalovirus, UniProt P12824 24-743; P16832 31-278); assay: intracellular FC, MVA-infected BHK-21
T8 construct: whole, on cells

[11] = target: T9, gH/gL/UL128 co-expressed from MVA in BHK-21 cells (human cytomegalovirus, UniProt P12824 24-743; P16832 31-278; P16837 28-171); assay: intracellular FC, MVA-infected BHK-21
T9 construct: whole, on cells

[12] = target: T10, gH/gL/UL130 co-expressed from MVA in BHK-21 cells (human cytomegalovirus, UniProt P12824 24-743; P16832 31-278; P16772 1-214); assay: intracellular FC, MVA-infected BHK-21
T10 construct: whole, on cells

[13] = target: T11, gH/gL/UL131A co-expressed from MVA in BHK-21 cells (human cytomegalovirus, UniProt P12824 24-743; P16832 31-278; F5HET4 19-129); assay: intracellular FC, MVA-infected BHK-21
T11 construct: whole, on cells

[14] = target: T12, gH/gL/UL128/UL130 co-expressed from MVA in BHK-21 cells (human cytomegalovirus, UniProt P12824 24-743; P16832 31-278; P16837 28-171; P16772 1-214); assay: intracellular FC, MVA-infected BHK-21
T12 construct: whole, on cells

[15] = target: T13, gH/gL/UL128/UL131A co-expressed from MVA in BHK-21 cells (human cytomegalovirus, UniProt P12824 24-743; P16832 31-278; P16837 28-171; F5HET4 19-129); assay: intracellular FC, MVA-infected BHK-21
T13 construct: whole, on cells

[16] = target: T14, gH/gL/UL130/UL131A co-expressed from MVA in BHK-21 cells (human cytomegalovirus, UniProt P12824 24-743; P16832 31-278; P16772 1-214; F5HET4 19-129); assay: intracellular FC, MVA-infected BHK-21
T14 construct: whole, on cells

[17] = target: T15, gH/gL/UL128/UL130/UL131A pentamer complex expressed from MVA-PC in BHK-21 cells (human cytomegalovirus, UniProt P12824 24-743; P16832 31-278; P16837 28-171; P16772 1-214; F5HET4 19-129); assay: FC, biotinylated NAb titrated on MVA-PC-infected BHK-21 (cell surface PC)
T15 construct: whole, on cells

[18] = target: T15, gH/gL/UL128/UL130/UL131A pentamer …; assay: FC competition, MVA-PC BHK-21; unlabelled row Ab; competitor: biotinylated 1B2
[19] = target: T15, gH/gL/UL128/UL130/UL131A pentamer …; assay: FC competition, MVA-PC BHK-21; unlabelled row Ab; competitor: biotinylated 12E2
[20] = target: T15, gH/gL/UL128/UL130/UL131A pentamer …; assay: FC competition, MVA-PC BHK-21; unlabelled row Ab; competitor: biotinylated 13B5
[21] = target: T15, gH/gL/UL128/UL130/UL131A pentamer …; assay: FC competition, MVA-PC BHK-21; unlabelled row Ab; competitor: biotinylated 21F6
[22] = target: T15, gH/gL/UL128/UL130/UL131A pentamer …; assay: FC competition, MVA-PC BHK-21; unlabelled row Ab; competitor: biotinylated 18F10
[23] = target: T15, gH/gL/UL128/UL130/UL131A pentamer …; assay: FC competition, MVA-PC BHK-21; unlabelled row Ab; competitor: biotinylated 54E11

B1: 12E2 (antibody, V domains shown)
VH: EVKLVESGGGLVQPGGSLKLSCATSGFTFSDYYMFWVRQTPEKKLEWVAYISNGGGSTYYPDTVKGRFTISRDNDKNTLYLQMSRLKSDDTALYYCVRPKRDFQYLYAMDYWGQGTSVTVSS
VL: DIVLTQSPASLAVSLGQRATISCRASKSVSTSGYSYMHWYQQKPGQSPKLLIYLASNLESGVPARFSGSGSGTDFTLNIHPVEDEDAATYYCQHSRELPWTFGGGTKLEIK
notes: also called NAb 12E2
In the case of B1, the “IC50, inhibition of TB40/E cell-to-cell spread in ARPE-19” value [1] is reported as 15 µg/mL, the “IC50, neutralization of TB40/E infection of ARPE-19” value [1] is reported as 0.0037 µg/mL and the “IC50, neutralization of TB40/E infection of CTB” value [1] is reported as 0.0721 µg/mL. For the same binder, the “IC50, neutralization of TB40/E infection of HUVEC” value [1] was 0.006 µg/mL, the “IC50, neutralization of TB40/E infection of MRC-5” value [1] was greater than 25 µg/mL and the “IC50, inhibition of TR cell-to-cell spread in ARPE-19” value [2] was 17 µg/mL. For the same binder, the “IC50, neutralization of TR infection of ARPE-19” value [2] was 0.0031 µg/mL, the “IC50, neutralization of TR infection of HUVEC” value (from here on “IC50 … of TR infection of HUVEC”) [2] was 0.0042 µg/mL and the “IC50, neutralization of TR infection of MRC-5” value (“IC50 … of TR infection of MRC-5” below) [2] was greater than 25 µg/mL. B1: no binding [3]; no binding [4]; no binding [5]. B1: no binding [6]; no binding [7]; no binding [8]. B1: no binding [9]; no binding [10]; no binding [11]. B1: no binding [12]; no binding [13]; no binding [14]. The binding result [15] was “no binding”, the binding result [16] was “no binding” and the EC50 [17] was 1.1 nM. For the same binder, the “Binding Inhibition (%)” value [18] was 100%, the “Binding Inhibition (%)” value [19] was 100% and the “Binding Inhibition (%)” value [20] was 0%. For the same binder, the “Binding Inhibition (%)” value [21] was 0%, the “Binding Inhibition (%)” value [22] was 0% and the “Binding Inhibition (%)” value [23] was 0%.

B2: 1B2 (antibody, V domains shown)
VH: EVQLVESGGVLVKPGGSLKLSCAASGFTFSDYYMYWVRQTPEKRLEWVATISDDGNYTNYPDSVKGRFTISRDNAKNNLYLQMSSLKSEDTAMYYCARGWLLPVFAYWGQGTLVTVSA
VL: DIVLTQSPATLSVTPGDSVSLSCRASQSIGNNLHWYQQKSHESPRLLIKYTSQSISGIPSRFSGSGSGTDFTLNINSVETEDFGVYFCQQSNRWPWTFGGGTKLEIK
notes: also called NAb 1B2
In the case of B2, the “IC50, inhibition of TB40/E cell-to-cell spread in ARPE-19” value [1] is reported as 1 µg/mL, the “IC50, neutralization of TB40/E infection of ARPE-19” value [1] is reported as 0.0006 µg/mL and the “IC50, neutralization of TB40/E infection of CTB” value [1] is reported as 0.0126 µg/mL. The “IC50, neutralization of TB40/E infection of HUVEC” value [1] was 0.0005 µg/mL, the “IC50, neutralization of TB40/E infection of MRC-5” value [1] was greater than 25 µg/mL and the “IC50, inhibition of TR cell-to-cell spread in ARPE-19” value [2] was 1.4 µg/mL. The “IC50, neutralization of TR infection of ARPE-19” value [2] was 0.0003 µg/mL, the “IC50 … of TR infection of HUVEC” value [2] was 0.0007 µg/mL and the “IC50 … of TR infection of MRC-5” value [2] was greater than 25 µg/mL. B2: no binding [3]; no binding [4]; no binding [5]. B2: no binding [6]; no binding [7]; no binding [8]. B2: no binding [9]; no binding [10]; no binding [11]. B2: no binding [12]; no binding [13]; no binding [14]. For the same binder, the binding result [15] was “no binding”, the binding result [16] was “no binding” and the EC50 [17] was 0.32 nM. The “Binding Inhibition (%)” value [18] was 100%, the “Binding Inhibition (%)” value [19] was 100% and the “Binding Inhibition (%)” value [20] was 0%. For the same binder, the “Binding Inhibition (%)” value [21] was 0%, the “Binding Inhibition (%)” value [22] was 0% and the “Binding Inhibition (%)” value [23] was 0%.

B3: 4A3 (antibody, V domains shown)
VH: QVQLQQPGPELVRPGASVKLSCKASGYTFTIYWMNWVKQRPGQGLEWIGMIDPSDSETHYNQMFKDKATLTVDKSSSTAYMQLSSLTSEDSAVYYCASSGTGAYWGQGTLLTVSA
VL: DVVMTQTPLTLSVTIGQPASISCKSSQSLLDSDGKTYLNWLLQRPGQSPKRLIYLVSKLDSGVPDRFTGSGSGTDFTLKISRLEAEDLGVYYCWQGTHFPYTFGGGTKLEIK
notes: also called NAb 4A3
With B3 the “IC50, neutralization of TB40/E infection of ARPE-19” value [1] was 0.0802 µg/mL, the “IC50, neutralization of TB40/E infection of HUVEC” value [1] was 0.0464 µg/mL and the “IC50, neutralization of TB40/E infection of MRC-5” value [1] was greater than 25 µg/mL. The “IC50, neutralization of TR infection of ARPE-19” value [2] was 0.0446 µg/mL, the “IC50 … of TR infection of HUVEC” value [2] was 0.0102 µg/mL and the “IC50 … of TR infection of MRC-5” value [2] was greater than 25 µg/mL. B3: no binding [3]; no binding [4]; no binding [5]. B3: no binding [6]; no binding [7]; no binding [8]. B3: no binding [9]; no binding [10]; no binding [11]. B3: no binding [12]; no binding [13]; no binding [14]. B3: no binding [15]; no binding [16].
